3 molecules from US8173771B2, “Humanin receptor or humanin-like polypeptide receptor” (Keio Univeristy, priority 2005, dated 2012) can be followed below.

Ends that are not written are not given here.

For one assay, the target named is T1, myc-tagged mouse CREME9 (mouse, UniProt Q9Z2L7 1-442).
T1 construct: whole, on cells; Methods say mouse CREME9; Co-expressed with human gp130 in F11 cells; also called CRL4; pEF-mycHis CREME9; not shown: myc-His tag
T1 sequence (looked up): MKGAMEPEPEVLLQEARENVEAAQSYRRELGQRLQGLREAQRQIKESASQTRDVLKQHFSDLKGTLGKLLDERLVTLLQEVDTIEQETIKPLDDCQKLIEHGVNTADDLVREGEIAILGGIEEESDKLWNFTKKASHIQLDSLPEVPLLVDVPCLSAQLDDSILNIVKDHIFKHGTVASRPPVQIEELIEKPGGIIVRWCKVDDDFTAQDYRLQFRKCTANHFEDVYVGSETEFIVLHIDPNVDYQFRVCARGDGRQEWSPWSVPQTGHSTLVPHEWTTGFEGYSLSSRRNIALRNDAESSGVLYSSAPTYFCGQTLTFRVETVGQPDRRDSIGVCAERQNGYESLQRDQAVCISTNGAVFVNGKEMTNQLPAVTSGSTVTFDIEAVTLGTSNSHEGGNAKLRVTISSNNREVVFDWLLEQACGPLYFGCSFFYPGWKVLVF
Description: immunofluorescence-based HN binding assay (1) on F11 cells overexpressing CREME9 and human gp130. The method, then: B) F11 cells were transfected with 0.5 µg of pEF-myc His human CREME9 or pEF-mycHis human WSX-1 in association with 0.5 µg of pCAG-human gp130. […] Fluorescence signals were detected with a laser-scanning, confocal microscope LSM (Carl Zeiss, Germany) (right panels).
(§1) F11 cells (7×10^4/well in 6-well plates) were replated into 96-well plates (7×10^3 cells/well) at 24 hrs after transfection with indicated amounts of the plasmids encoding mycHis-WSX or V5-CNTF-R, and with PCAG-human gp130 if required. […] After 6 hrs incubation, they were fixed with 4% paraformaldehyde in PBS for 30 min. After washing with PBS, cells were stained with FITC-conjugated avidin (Molecularprobe, Eugene, Oreg., USA). Immunofluorescence intensity was measured (excitation=485 nm, emission=535 nm) with a spectrofluorometer (Wallac1420 ARVOsx Multi Label Counter). Immunohistochemical analysis was done with a laser-scanning, confocal microscope LSM (Carl Zeiss, Germany).

The target in assay [1] is T2, rat IL-6R (rat, UniProt P22273 20-462).
T2 construct: Overexpressed in F11 cells; stood in the cell lysate in the pull-down assay; also called IL-6 receptor; rat IL-6R (V6 tagged); not shown: printed as 'V6 tagged'
T2 sequence (looked up): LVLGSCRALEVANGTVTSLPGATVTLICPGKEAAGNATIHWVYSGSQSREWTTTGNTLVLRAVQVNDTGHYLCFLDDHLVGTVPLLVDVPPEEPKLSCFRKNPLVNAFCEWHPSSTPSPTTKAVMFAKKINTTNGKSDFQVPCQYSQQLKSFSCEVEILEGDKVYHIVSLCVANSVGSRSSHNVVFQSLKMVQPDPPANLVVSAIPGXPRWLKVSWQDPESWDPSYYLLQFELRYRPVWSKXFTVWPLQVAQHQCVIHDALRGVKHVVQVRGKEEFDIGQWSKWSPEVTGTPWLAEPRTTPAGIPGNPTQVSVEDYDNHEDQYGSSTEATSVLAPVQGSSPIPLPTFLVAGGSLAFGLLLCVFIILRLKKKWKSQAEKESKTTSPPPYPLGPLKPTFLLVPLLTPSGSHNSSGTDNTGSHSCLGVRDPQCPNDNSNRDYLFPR
Description: pull-down with HN-Sepharose 4B from lysates of transfected F11 cells, immunoblot. The method, then: (§2) WSX-1, CNTF-R, and IL-6 were over-expressed in F11 cells and the pull down assay was made using the above 4B bead.
(§3) F11 cells (7×10^4/well in 6-well plates) were transfected with the plasmids encoding mycHis-WSX-1, V5-CNTF-R or rat IL-6R (V6 tagged). […] The beads were then reacted with a blocking buffer (0.2M glycine, pH 8.0) for 2 hrs at a room temperature, washed with the coupling buffer and stored at 4° C. for use in pull-down assay. For each pull-down assay, 20 μl of 1:1 slurry of Sepharose was used for 100 μl of the cell lysate.

Assay [2] has as its target T3, Humanin receptor (HNR) overexpressed in F11 cells: human CNTF-R/WSX-1/gp130 (human, UniProt P26992 23-342; Q6UWB1 33-636; P40189 23-918).
T3 construct: whole, on cells; The three human subunits co-transfected into F11 cells, which also carry the endogenous receptor; also called both the CNTF receptor and WSX-1; not shown: C-terminal V5 tag; C-terminal myc-His tag
Description: cold competitor in binding assay (2), F11 cells transfected with human CNTF-R/WSX-1/gp130. The method, then: A) F11 cells were seeded on 96-well plates coated with poly-L-lysine (7 ×10^3 cells/well). […] On the other hand, F11 cells were transfected with 0.5 μg of pcDNA3.1/GS-human CNTF-R, pEF1/MycHis-human WSX-1, and 1.0 μg of pCAG-human gp130. At 24 hrs after the transfection, the cells were re-seeded on 96-well plates coated with poly-L-lysine (7 ×10^3 cells/well).
as §1

Assay [3] concerns the target T4, C-terminally myc-tagged human WSX-1 (mycHis-WSX-1) (human, UniProt Q6UWB1 33-636).
T4 construct: whole, on cells; in the pull-down and co-immunoprecipitation it stood in cell lysates; also called myc-WSX-1; IL-27 receptor; not shown: C-terminal myc-His tag of the pEF-mycHis vector
T4 sequence (looked up): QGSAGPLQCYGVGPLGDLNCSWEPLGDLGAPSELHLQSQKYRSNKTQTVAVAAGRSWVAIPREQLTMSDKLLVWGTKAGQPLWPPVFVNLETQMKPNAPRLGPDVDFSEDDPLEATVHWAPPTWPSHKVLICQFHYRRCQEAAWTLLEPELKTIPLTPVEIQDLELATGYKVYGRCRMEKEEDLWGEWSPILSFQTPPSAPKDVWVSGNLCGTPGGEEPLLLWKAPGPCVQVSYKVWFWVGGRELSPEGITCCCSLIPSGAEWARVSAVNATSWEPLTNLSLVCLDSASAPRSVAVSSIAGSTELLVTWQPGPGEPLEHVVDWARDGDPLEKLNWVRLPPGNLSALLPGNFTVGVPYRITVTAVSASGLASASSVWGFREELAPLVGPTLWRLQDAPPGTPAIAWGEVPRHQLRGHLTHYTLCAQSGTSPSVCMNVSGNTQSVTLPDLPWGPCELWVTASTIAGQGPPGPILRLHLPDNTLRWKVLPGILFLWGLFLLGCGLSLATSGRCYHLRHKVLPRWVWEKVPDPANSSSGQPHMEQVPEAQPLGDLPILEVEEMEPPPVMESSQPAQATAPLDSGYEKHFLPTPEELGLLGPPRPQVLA
Description: pull-down with HNA-Sepharose 4B from lysates of transfected F11 cells, immunoblot. The method, then: as §2, §3
(In general: In western blotting, separated proteins are transferred to a membrane and probed.)

In assay [4] the target is T5, C-terminally V5-tagged human CNTF-R (V5-CNTF-R) (human, UniProt P26992 23-342).
T5 construct: whole, on cells; in the pull-down and co-immunoprecipitation it stood in cell lysates; also called human CNTF receptor; CNTF receptor alpha chain; not shown: C-terminal V5 tag
T5 sequence (looked up): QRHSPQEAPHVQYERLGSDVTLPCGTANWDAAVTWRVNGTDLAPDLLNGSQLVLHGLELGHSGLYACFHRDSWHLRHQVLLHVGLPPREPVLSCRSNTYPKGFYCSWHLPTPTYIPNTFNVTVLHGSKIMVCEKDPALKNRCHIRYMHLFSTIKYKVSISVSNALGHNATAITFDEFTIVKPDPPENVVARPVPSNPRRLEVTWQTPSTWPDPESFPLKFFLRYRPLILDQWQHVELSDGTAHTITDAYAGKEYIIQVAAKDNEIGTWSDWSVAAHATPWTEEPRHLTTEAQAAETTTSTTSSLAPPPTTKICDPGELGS
The assay is described as above. The method, then: as §2, §3

Assay [5] concerns the target T2, rat IL-6R. Described as above. The method, then: as §2, §3

T3 sequence (P40189 23-918, one chain of several): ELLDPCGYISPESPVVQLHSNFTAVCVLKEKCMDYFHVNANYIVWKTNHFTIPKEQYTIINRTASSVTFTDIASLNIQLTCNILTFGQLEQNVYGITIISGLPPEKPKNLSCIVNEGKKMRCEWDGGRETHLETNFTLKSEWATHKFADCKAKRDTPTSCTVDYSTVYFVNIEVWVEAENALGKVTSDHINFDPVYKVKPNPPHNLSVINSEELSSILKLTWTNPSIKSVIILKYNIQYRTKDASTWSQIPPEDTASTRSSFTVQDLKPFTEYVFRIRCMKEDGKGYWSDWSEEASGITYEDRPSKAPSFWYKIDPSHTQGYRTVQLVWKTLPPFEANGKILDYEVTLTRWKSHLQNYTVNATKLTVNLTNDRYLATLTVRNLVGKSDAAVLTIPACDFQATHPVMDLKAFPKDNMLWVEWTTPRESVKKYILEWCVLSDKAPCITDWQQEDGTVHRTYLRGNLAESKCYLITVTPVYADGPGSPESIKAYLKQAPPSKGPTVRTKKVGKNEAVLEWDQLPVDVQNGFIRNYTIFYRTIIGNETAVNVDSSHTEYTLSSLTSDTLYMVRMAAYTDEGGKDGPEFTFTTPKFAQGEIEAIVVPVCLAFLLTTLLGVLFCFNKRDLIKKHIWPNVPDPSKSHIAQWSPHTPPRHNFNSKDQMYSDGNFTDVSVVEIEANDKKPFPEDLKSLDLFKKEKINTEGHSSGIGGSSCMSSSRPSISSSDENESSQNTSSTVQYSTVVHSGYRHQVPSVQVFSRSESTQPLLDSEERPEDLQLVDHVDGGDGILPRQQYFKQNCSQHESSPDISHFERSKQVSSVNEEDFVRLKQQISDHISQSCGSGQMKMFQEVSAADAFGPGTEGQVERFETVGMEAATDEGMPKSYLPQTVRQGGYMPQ

B1: biotin-labeled HNG-FLAG (peptide)
peptide: MAPRGFSCLLLLTGEIDLPVKRRA
modifications: also: biotin label, position not given here, FLAG tag, sequence and position not given here
notes: the identity is therefore uncertain; not shown: FLAG tag
Turning to B1, the binding result with myc-tagged mouse CREME9 is reported as “no binding (tested: 100 nM)”.

B2: Humanin (HN) (peptide)
peptide: MAPRGFSCLLLLTSEIDLPVKRRA
notes: Synthetic 24-residue peptide; elsewhere it was used free and unlabeled; also called synthetic Humanin
As for B2, the binding result with rat IL-6R [1] is listed as “no binding”; in assay [2] it was “binds”.

B3: C8A-Humanin (HNA) (peptide)
peptide: MAPRGFSALLLLTSEIDLPVKRRA
notes: Synthetic peptide, HN mutant with null activity used as negative control; also called C8A-HN
For the molecule B3, the binding result (in assay [3]; in assay [4]; in the assay with rat IL-6R [5]) was “no binding” throughout.
